# Data reported in publication PMC4419694.
# Columns and labels:
# Assay in all cases: AUC
# SSBΔ120-166 (E. coli) = target: SSBΔ120-166 (E. coli)
# SSBΔ130-166 (E. coli) = target: SSBΔ130-166 (E. coli)
# SSBΔ151-166 (E. coli) = target: SSBΔ151-166 (E. coli)
# SSBΔC8 (E. coli) = target: SSBΔC8 (E. coli)
substance,measurement,setting,value
SSBΔ120-166 (natural protein),stoichiometry N,SSBΔ120-166 (E. coli),4
SSBΔ130-166 (natural protein),stoichiometry N,SSBΔ130-166 (E. coli),4
SSBΔ151-166 (natural protein),stoichiometry N,SSBΔ151-166 (E. coli),4
SSBΔC8 (domain or fragment),stoichiometry N,SSBΔC8 (E. coli),4
